Molecular target: cynomolgus CD25 expressed on cells (Cynomolgus monkey) (UniProt H6WS54)
Assay: flow cytometry on cyno-CD25-CHO-S cells, 100 nM antibody, anti-human R-PE

IgG1 Isotype (antibody) was tested. Which MFI did it give?
Its MFI is 82.

Source: patent publication US20210009703A1
